Reference: the Human Domainome abundance scans (Beltran et al. 2025)
± gives the uncertainty stated by the source.

B1: Arginine-glutamic acid dipeptide repeats protein, residues 502 to 543; numbered along this chain, Q9P2R6 (parent)
chain: LKGYACRHCFTTTSKDWHHGGRENILLCTDCRIHFKKYGELP

Variants of: B1
Assay: abundance fitness (aPCA) (normalised: wild type 0, dead -1); higher = more abundant; growth selection in yeast, the domain comes from the species named
Conditions: Homo sapiens

Variant | abundance fitness
L41W | -0.302 ± 0.038
L41I | -0.46 ± 0.092
L41N | -0.366 ± 0.055
L41P | -0.253 ± 0.041
L41H | -0.416 ± 0.069
L41E | -0.301 ± 0.039
L41C | -0.223 ± 0.052
L41G | -0.276 ± 0.036
L41S | -0.325 ± 0.045
L41Y | -0.22 ± 0.097
L41M | -0.126 ± 0.057
L41K | -0.309 ± 0.044
L41A | -0.317 ± 0.041
L41F | 0.271 ± 0.33
L41Q | -0.327 ± 0.078
L41T | -0.044 ± 0.08
L41V | -0.246 ± 0.039
L41D | -0.245 ± 0.072

Variant | abundance fitness
E40V | -0.036 ± 0.038
E40Q | -0.012 ± 0.058
E40P | -0.521 ± 0.089
E40Y | -0.143 ± 0.094
E40S | -0.077 ± 0.037
E40M | -0.176 ± 0.045
E40W | -0.265 ± 0.038
E40N | -0.116 ± 0.056
E40L | -0.122 ± 0.038
E40T | -0.078 ± 0.036
P42A | -0.367 ± 0.048
P42G | -0.519 ± 0.12
P42R | -0.654 ± 0.1
P42Q | -0.349 ± 0.073
P42E | -0.3 ± 0.09
P42V | -0.456 ± 0.09
P42L | -0.491 ± 0.085
